Fold difference in affinity as compared to humVEGF1-165 data for one molecule are collected here from patent publication US20120231000A1.

The assay concerns the target Avastin™ (Bevacizumab). Nature of the assay: competition ELISA, inhibition of Avastin binding to coated humVEGF1-165.

B1: oxid-humVEGF26-104 (designed binder)
chain: CHPIETLVDIFQEYPDEIEYIFKPSAVPLMRCGGACNDEGLECVPTEESNITMQIMRIKPHQGQHIGEMSFLQHNKCEC
modifications: N-terminal acetyl; C-terminal amide; oxidatively folded cystine knot (three disulfide bonds C1-C4, C2-C5, C3-C6)
B1: the fold difference in affinity as compared to humVEGF1-165 was below 5 fold.
